Data on 14 molecules can be found in patent publication US20250215104A1 (WALDEN BIOSCIENCES, published 2025).

The target in experiment [1] is T1, human soluble urokinase plasminogen activator receptor (hsuPAR) (human, UniProt Q03405 23-303, limits assumed).
T1 construct: also called human suPAR; rhuPAR-His
Nature of the experiment: off-rate screen of scFv clones (kdis), Octet BLI.

The target in experiment [2] is T2, cynomolgus soluble urokinase plasminogen activator receptor (cynomolgus suPAR) (cynomolgus, UniProt Q9GK78 23-303, limits assumed).
T2 construct: also called cynomolgus uPAR; cynoPLAUR-His
T2 sequence (Q9GK78 23-303 limits assumed): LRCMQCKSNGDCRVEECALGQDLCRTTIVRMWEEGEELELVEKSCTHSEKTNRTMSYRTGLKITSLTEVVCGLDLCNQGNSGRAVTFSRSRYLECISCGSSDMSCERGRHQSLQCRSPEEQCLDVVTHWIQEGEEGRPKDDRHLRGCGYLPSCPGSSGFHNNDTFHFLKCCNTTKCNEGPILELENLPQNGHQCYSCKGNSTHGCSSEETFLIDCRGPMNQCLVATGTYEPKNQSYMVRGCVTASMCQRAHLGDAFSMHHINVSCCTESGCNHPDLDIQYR
Nature of the experiment: off-rate screen of scFv clones (kdis), Octet BLI. On the technique in general: Biolayer interferometry detects binding as a change in optical thickness at a sensor tip.

The term koff denotes the rate constant with which the complex falls apart.

T1 sequence (Q03405 23-303 limits assumed): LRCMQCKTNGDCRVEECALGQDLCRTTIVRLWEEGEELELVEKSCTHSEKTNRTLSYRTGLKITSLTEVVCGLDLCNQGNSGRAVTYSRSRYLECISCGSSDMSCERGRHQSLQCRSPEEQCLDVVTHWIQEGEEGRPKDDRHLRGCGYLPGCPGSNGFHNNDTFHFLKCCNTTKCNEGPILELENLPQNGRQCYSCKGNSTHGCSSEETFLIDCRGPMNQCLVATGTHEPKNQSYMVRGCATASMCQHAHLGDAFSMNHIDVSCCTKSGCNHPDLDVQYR

B1: suPAR_DB04_E12 (scFv, V domains shown)
VH: QVQLVQSGAEVKKPGASVKVSCKASGYTFTTYYMHWVRQAPGQGLEWMGWIDPENGSTIYDQKFQGRVTMTRDTSTSTVYMELSSLRSEDTAVYYCARGYDVDWFVYWGQGTLVTVSS
VL: DIQMTQSPSSLSASVGDRVTITCSASQSVSYMYWYQQKPGKAPKLLIYRTSNLASGVPSRFSGSGSGTDFTLTISSLQPEDFATYYCQQYHSYPPTFGGGTKVEIK
notes: scFv clone from phage display
For B1, the koff was determined as 0.00336 s⁻¹ in experiment [1] and 8.15e-05 s⁻¹ in experiment [2].

B2: suPAR_DB04_F03 (scFv, V domains shown)
VH: QVQLVQSGAEVKKPGASVKVSCKASGYTIKDYYIHWVRQAPGQGLEWMGWIDPRSGDTNYGKNFQGRVTMTRDTSTSTVYMELSSLRSEDTAVYYCARGYDVDWFVYWGQGTLVTVSS
VL: DIQMTQSPSSLSASVGDRVTITCSARSSVSYMYWYQQKPGKAPKLLIYRTSNLASGVPSRFSGSGSGTDFTLTISSLQPEDFATYYCQQYHSYPPTFGGGTKVEIK
notes: scFv clone from phage display
As for B2, the koff in experiment [1] amounted to 0.00375 s⁻¹; in experiment [2] it was 0.000863 s⁻¹.

B3: suPAR_DB04_F07 (scFv, V domains shown)
VH: QVQLVQSGAEVKKPGASVKVSCKASGYTFTGYYVHWVRQAPGQGLEWMGWIDHENGNTIYDQKFQGRVTMTRDTSTSTVYMELSSLRSEDTAVYYCARGYDVDWFVYWGQGTLVTVSS
VL: DIQMTQSPSSLSASVGDRVTITCSARSSVSYMYWYQQKPGKAPKLLIYRTSNLASGVPSRFSGSGSGTDFTLTISSLQPEDFATYYCQQYHSYPPTFGGGTKVEIK
notes: scFv clone from phage display
As for B3, the results for the off-rate (koff) in experiment [1] and in experiment [2] were 0.00269 s⁻¹ and 3.33e-05 s⁻¹, respectively.

B4: suPAR_DB04_F08 (scFv, V domains shown)
VH: QVQLVQSGAEVKKPGASVKVSCKASGGTFTSYYMHWVRQAPGQGLEWMGWIDHSNGSTSYAQEFQGRVTMTRDTSTSTVYMELSSLRSEDTAVYYCARGYDVDWFVYWGQGTLVTVSS
VL: DIQMTQSPSSLSASVGDRVTITCSARSSVSYMYWYQQKPGKAPKLLIYRTSNLASGVPSRFSGSGSGTDFTLTISSLQPEDFATYYCQQYHSYPPTFGGGTKVEIK
notes: scFv clone from phage display
For B4, the results for the off-rate constant (koff) in experiment [1] and in experiment [2] were 0.00261 s⁻¹ and 4.31e-05 s⁻¹, respectively.

B5: suPAR_DB04_F05 (scFv, V domains shown)
VH: QVQLVQSGAEVKKPGASVKVSCKASGYTFSDYYVHWVRQAPGQGLEWMGWIDHEGGSTSYAQKFQGRVTMTRDTSTSTVYMELSSLRSEDTAVYYCARGYDVDWFVYWGQGTLVTVSS
VL: DIQMTQSPSSLSASVGDRVTITCSARQSISYMYWYQQKPGKAPKLLIYRTSNLASGVPSRFSGSGSGTDFTLTISSLQPEDFATYYCQQYHSYPPTFGGGTKVEIK
notes: scFv clone from phage display
As to B5, the koff in experiment [1] was 0.00405 s⁻¹; in experiment [2], 0.000278 s⁻¹.

B6: suPAR_DB04_F10 (scFv, V domains shown)
VH: QVQLVQSGAEVKKPGASVKVSCKASGYTFTDYYMHWVRQAPGQGLEWMGWIDHSGGNTIYAQKFQGRVTMTRDTSTSTVYMELSSLRSEDTAVYYCARGYDVDWFVYWGQGTLVTVSS
VL: DIQMTQSPSSLSASVGDRVTITCSARSSVSYMYWYQQKPGKAPKLLIYRTSNLASGVPSRFSGSGSGTDFTLTISSLQPEDFATYYCQQYHSYPPTFGGGTKVEIK
notes: scFv clone from phage display
Turning to B6, the results for the koff in experiment [1] and in experiment [2] were 0.00412 s⁻¹ and 0.000274 s⁻¹, respectively.

B7: suPAR_DB04_G02 (scFv, V domains shown)
VH: QVQLVQSGAEVKKPGASVKVSCKASGYTFTNYYMHWVRQAPGQGLEWMGWIDHENGNTIYDQKFQGRVTMTRDTSTSTVYMELSSLRSEDTAVYYCARGYDVDWFVYWGQGTLVTVSS
VL: DIQMTQSPSSLSASVGDRVTITCSARSSVSYMYWYQQKPGKAPKLLIYRTSSLASGVPSRFSGSGSGTDFTLTISSLQPEDFATYYCQQYHSYPPTFGGGTKVEIK
notes: scFv clone from phage display
B7: the results for the koff in experiment [1] and in experiment [2] were 0.00185 s⁻¹ and 0.000388 s⁻¹, respectively.

B8: suPAR_DB04_G03 (scFv, V domains shown)
VH: QVQLVQSGAEVKKPGASVKVSCKASGYTFTGYYMHWVRQAPGQGLEWMGWIDHENGNTIYDQKFQGRVTMTRDTSTSTVYMELSSLRSEDTAVYYCARGYDVDWFVYWGQGTLVTVSS
VL: DIQMTQSPSSLSASVGDRVTITCSASSSVSYMYWYQQKPGKAPKLLIYRTSNLQSGVPSRFSGSGSGTDFTLTISSLQPEDFATYYCQQYHSYPPTFGGGTKVEIK
notes: scFv clone from phage display
With B8, the dissociation rate constant (koff) in experiment [1] turned out to be 0.00119 s⁻¹; in experiment [2], 0.000747 s⁻¹.

B9: suPAR_DB04_F04 (scFv, V domains shown)
VH: QVQLVQSGAEVKKPGASVKVSCKASGYTFTSYYMHWVRQAPGQGLEWMGWIDHENGNTSYDQKFQGRVTMTRDTSTSTVYMELSSLRSEDTAVYYCARGYDVDWFVYWGQGTLVTVSS
VL: DIQMTQSPSSLSASVGDRVTITCSARSSVSYMYWYQQKPGKAPKLLIYRTSNLASGVPSRFSGSGSGTDFTLTISSLQPEDFATYYCQQYHSYPPTFGGGTKVEIK
notes: scFv clone from phage display
In the case of B9, the koff in experiment [1] came to 0.00394 s⁻¹; in experiment [2] it was 0.000174 s⁻¹.

B10: suPAR_DB04_F06 (scFv, V domains shown)
VH: QVQLVQSGAEVKKPGASVKVSCKASGYTFTGYYMHWVRQAPGQGLEWMGWIDHENGNTSYAQKFQGRVTMTRDTSTSTVYMELSSLRSEDTAVYYCARGYDVDWFVYWGQGTLVTVSS
VL: DIQMTQSPSSLSASVGDRVTITCSARQSISYMYWYQQKPGKAPKLLIYRTSNLASGVPSRFSGSGSGTDFTLTISSLQPEDFATYYCQQYHSYPPTFGGGTKVEIK
notes: scFv clone from phage display
Turning to B10, the off-rate (koff) in experiment [1] is 0.00279 s⁻¹; in experiment [2], 0.000195 s⁻¹.

B11: suPAR_DB04_G04 (scFv, V domains shown)
VH: QVQLVQSGAEVKKPGASVKVSCKASGYSFTSYYIHWVRQAPGQGLEWMGWIDHENGSTIYAQKFQGRVTMTRDTSTSTVYMELSSLRSEDTAVYYCARGYDVDWFVYWGQGTLVTVSS
VL: DIQMTQSPSSLSASVGDRVTITCSASQSVSYMYWYQQKPGKAPKLLIYRTSNLASGVPSRFSGSGSGTDFTLTISSLQPEDFATYYCQQYHSYPPTFGGGTKVEIK
notes: scFv clone from phage display
B11: the values for the dissociation rate constant (koff) in experiment [1] and in experiment [2] were 0.000751 s⁻¹ and 0.000342 s⁻¹, respectively.

B12: suPAR_DB04_F01 (scFv, V domains shown)
VH: QVQLVQSGAEVKKPGASVKVSCKASGYTFTSYYMHWVRQAPGQGLEWMGWIDHEGGNTIYAQKFQGRVTMTRDTSTSTVYMELSSLRSEDTAVYYCARGDDVDWFVYWGQGTLVTVSS
VL: DIQMTQSPSSLSASVGDRVTITCSASQSVSYMYWYQQKPGKAPKLLIYRTSNLASGVPSRFSGSGSGTDFTLTISSLQPEDFATYYCQQYHSYPPTFGGGTKVEIK
notes: scFv clone from phage display
For the molecule B12, the koff in experiment [1] was 0.00267 s⁻¹; in experiment [2], 4.88e-07 s⁻¹.

B13: suPAR_DB04_F11 (scFv, V domains shown)
VH: QVQLVQSGAEVKKPGASVKVSCKASGYTFTSHYMHWVRQAPGQGLEWMGWIDHEGGNTSYAQKFQGRVTMTRDTSTSTVYMELSSLRSEDTAVYYCARGYDVDWFVYWGQGTLVTVSS
VL: DIQMTQSPSSLSASVGDRVTITCSARSSVSYMYWYQQKPGKAPKLLIYRTSNLASGVPSRFSGSGSGTDFTLTISSLQPEDFATYYCQQYHSYPPTFGGGTKVEIK
notes: scFv clone from phage display
In the case of B13, the koff in experiment [1] worked out at 0.0051 s⁻¹; in experiment [2] it was 0.000121 s⁻¹.

B14: suPAR_DB04_F09 (scFv, V domains shown)
VH: QVQLVQSGAEVKKPGASVKVSCKASGYTFTNYYFHWVRQAPGQGLEWMGWIDHENGNTSYDQKFQGRVTMTRDTSTSTVYMELSSLRSEDTAVYYCARGYDVDWFVYWGQGTLVTVSS
VL: DIQMTQSPSSLSASVGDRVTITCSARSSVSYMYWYQQKPGKAPKLLIYRTSNLASGVPSRFSGSGSGTDFTLTISSLQPEDFATYYCQQYHSYPPTFGGGTKVEIK
notes: scFv clone from phage display
B14: the koff in experiment [1] amounted to 0.00462 s⁻¹; in experiment [2] it was 0.000122 s⁻¹.
